Laboratory results taken from paper PMC8168301.
“And” between values parts separate entries of the source, which are not always exact repeats. Equal entries are not always repeated. Where two headings read alike, the source gives them in different places.

Legend:
N WT [1] = target: T1, N WT (SARS-CoV-2, UniProt P0DTC9 1-419); test: fluorescence polarization
N NTD-LKR-CTD [2] = target: T2, N NTD-LKR-CTD (SARS-CoV-2, UniProt P0DTC9 44-369); test: fluorescence polarization
N NTD-LKR-CTD-Carm = N NTD-LKR-CTD-Carm (SARS-CoV-2, UniProt P0DTC9 44-419); test: fluorescence polarization
N NTD-LKR = N NTD-LKR (SARS-CoV-2, UniProt P0DTC9 44-247); test: fluorescence polarization
N CTD [3] = target: T3, N CTD (SARS-CoV-2, UniProt P0DTC9 248-369); test: fluorescence polarization
N NTD [4] = target: T4, N NTD (SARS-CoV-2, UniProt P0DTC9 44-176); test: fluorescence polarization
N CTD [5] = target: T3, N CTD; test: fluorescence polarization; remark: listed apart in the source
N LKR-CTD = N LKR-CTD (SARS-CoV-2, UniProt P0DTC9 177-369); test: fluorescence polarization
N NTD-LKR;N CTD = N NTD-LKR;N CTD (SARS-CoV-2;SARS-CoV-2, UniProt P0DTC9;P0DTC9 44-247;248-369, |); test: fluorescence polarization
N NTD;N LKR-CTD = N NTD;N LKR-CTD (SARS-CoV-2;SARS-CoV-2, UniProt P0DTC9;P0DTC9 44-176;177-369, |); test: fluorescence polarization
N NTD [6] = target: T4, N NTD; test: fluorescence polarization; remark: listed apart in the source
N WT [7] = target: T1, N WT; test: fluorescence anisotropy
N NTD-LKR-CTD [8] = target: T2, N NTD-LKR-CTD; test: fluorescence anisotropy
N NTD-LKR-CTD [9] = target: T2, N NTD-LKR-CTD; test: fluorescence polarization; remark: listed apart in the source

GGAAGAUUAAUAAUUUUCC (structured_RNA) [19-nt slRNA]
Kd (N WT [1]): 51 ± 4 nM | Kd (N NTD-LKR-CTD [2]): 220 ± 20 nM | Kd (N NTD-LKR-CTD-Carm): 100 ± 10 nM | Kd (N NTD-LKR): 2500 nM and 3000 nM | Kd (N CTD [3]): 65000 ± 44000 nM | Kd (N NTD [4]): 124000 ± 84000 nM

UUUCACCUCCCUUUCAGUUU (ssRNA) [20-nt ssRNA]
Kd (N WT [1]): 7 ± 1 nM | Kd (N CTD [5]): 13000 ± 5000 nM | Kd (N NTD-LKR-CTD-Carm): 6 ± 2 nM | Kd (N NTD-LKR): 500 ± 80 nM | Kd (N LKR-CTD): 350 ± 40 nM | Kd (N NTD-LKR;N CTD): 440 ± 40 nM | Kd (N NTD;N LKR-CTD): 720 ± 90 nM | Kd (N NTD [6]): 16000 ± 12000 nM | Kd (N WT [7]): 7 ± 1 nM | Kd (N NTD-LKR-CTD [8]): 6 ± 2 nM | Kd (N NTD-LKR-CTD [9]): 6 ± 2 nM
